According to IntAct's records for PubMed 31515488:

B1: Zinc finger and BTB domain-containing protein 49 (Homo sapiens), Q6ZSB9 (parent)
chain: MDPVATHSCHLLQQLHEQRIQGLLCDCMLVVKGVCFKAHKNVLAAFSQYFRSLFQNSSSQKNDVFHLDVKNVSGIGQILDFMYTSHLDLNQDNIQVMLDTAQCLQVQNVLSLCHTFLKSATVVQPPGMPCNSTLSLQSTLTPDATCVISENYPPHLLQECSADAQQNKTLDESHPHASPSVNRHHSAGEISKQAPDTSDGSCTELPFKQPNYYYKLRNFYSKQYHKHAAGPSQERVVEQPFAFSTSTDLTTVESQPCAVSHSECILESPEHLPSNFLAQPVNDSAPHPESDATCQQPVKQMRLKKAIHLKKLNFLKSQKYAEQVSEPKSDDGLTKRLESASKNTLEKASSQSAEEKESEEVVSCENFNCISETERPEDPAALEDQSQTLQSQRQYACELCGKPFKHPSNLELHKRSHTGEKPFECNICGKHFSQAGNLQTHLRRHSGEKPYICEICGKRFAASGDVQRHIIIHSGEKPHLCDICGRGFSNFSNLKEHKKTHTADKVFTCDECGKSFNMQRKLVKHRIRHTGERPYSCSACGKCFGGSGDLRRHVRTHTGEKPYTCEICNKCFTRSAVLRRHKKMHCKAGDESPDVLEELSQAIETSDLEKSQSSDSFSQDTSVTLMPVSVKLPVHPVENSVAEFDSHSGGSYCKLRSMIQPHGVSDQEKLSLDPGKLAKPQMQQTQPQAYAYSDVDTPAGGEPLQADGMAMIRSSLAALDNHGGDPLGSRASSTTYRNSEGQFFSSMTLWGLAMKTLQNENELDQ
B2: Putative RNA-binding protein Luc7-like 2 (Homo sapiens), Q9Y383 (parent)
chain: MSAQAQMRAMLDQLMGTSRDGDTTRQRIKFSDDRVCKSHLLNCCPHDVLSGTRMDLGECLKVHDLALRADYEIASKEQDFFFELDAMDHLQSFIADCDRRTEVAKKRLAETQEEISAEVAAKAERVHELNEEIGKLLAKVEQLGAEGNVEESQKVMDEVEKARAKKREAEEVYRNSMPASSFQQQKLRVCEVCSAYLGLHDNDRRLADHFGGKLHLGFIEIREKLEELKRVVAEKQEKRNQERLKRREEREREEREKLRRSRSHSKNPKRSRSREHRRHRSRSMSRERKRRTRSKSREKRHRHRSRSSSRSRSRSHQRSRHSSRDRSRERSKRRSSKERFRDQDLASCDRDRSSRDRSPRDRDRKDKKRSYESANGRSEDRRSSEEREAGEI
B3: Glutathione S-transferase Mu 5 (Homo sapiens), P46439 (parent)
chain: MPMTLGYWDIRGLAHAIRLLLEYTDSSYVEKKYTLGDAPDYDRSQWLNEKFKLGLDFPNLPYLIDGAHKITQSNAILRYIARKHNLCGETEEEKIRVDILENQVMDNHMELVRLCYDPDFEKLKPKYLEELPEKLKLYSEFLGKRPWFAGDKITFVDFLAYDVLDMKRIFEPKCLDAFLNLKDFISRFEGLKKISAYMKSSQFLRGLLFGKSATWNSK
B4: RUN and FYVE domain-containing protein 1 (Homo sapiens), Q96T51-2 (parent)
chain: MMEERANLMHMMKLSIKVLLQSALSLGRSLDADHAPLQQFFVVMEHCLKHGLKVKKSFIGQNKSFFGPLELVEKLCPEASDIATSVRNLPELKTAVGRGRAWLYLALMQKKLADYLKVLIDNKHLLSEFYEPEALMMEEEGMVIVGLLVGLNVLDANLCLKGEDLDSQVGVIDFSLYLKDVQDLDGGKEHERITDVLDQKNYVEELNRHLSCTVGDLQTKIDGLEKTNSKLQEELSAATDRICSLQEEQQQLREQNELIRERSEKSVEITKQDTKVELETYKQTRQGLDEMYSDVWKQLKEEKKVRLELEKELELQIGMKTEMEIAMKLLEKDTHEKQDTLVALRQQLEEVKAINLQMFHKAQNAESSLQQKNEAITSFEGKTNQVMSSMKQMEERLQHSERARQGAEERSHKLQQELGGRIGALQLQLSQLHEQCSSLEKELKSEKEQRQALQRELQHEKDTSSLLRMELQQVEGLKKELRELQDEKAELQKICEEQEQALQEMGLHLSQSKLKMEDIKEVNQALKGHAWLKDDEATHCRQCEKEFSISRRKHHCRNCGHIFCNTCSSNELALPSYPKPVRVCDSCHTLLLQRCSSTAS
partner: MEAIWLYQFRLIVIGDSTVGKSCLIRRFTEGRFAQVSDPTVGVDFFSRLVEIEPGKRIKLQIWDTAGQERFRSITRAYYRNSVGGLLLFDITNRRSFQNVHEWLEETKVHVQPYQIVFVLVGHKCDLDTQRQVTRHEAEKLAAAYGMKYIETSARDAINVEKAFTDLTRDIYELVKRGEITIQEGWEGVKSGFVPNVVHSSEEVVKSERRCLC
B5: Germ cell-less protein-like 1 (Homo sapiens), Q96IK5 (parent)
chain: MGSLSSRVLRQPRPALAQQAQGARAGGSARRPDTGDDAAGHGFCYCAGSHKRKRSSGSFCYCHPDSETDEDEEEGDEQQRLLNTPRRKKLKSTSKYIYQTLFLNGENSDIKICALGEEWSLHKIYLCQSGYFSSMFSGSWKESSMNIIELEIPDQNIDVEALQVAFGSLYRDDVLIKPSRVVAILAAACLLQLDGLIQQCGETMKETVNVKTVCGYYTSAGTYGLDSVKKKCLEWLLNNLMTHQNVELFKELSINVMKQLIGSSNLFVMQVEMDIYTALKKWMFLQLVPSWNGSLKQLLTETDVWFSKQRKDFEGMAFLETEQGKPFVSVFRHLRLQYIISDLASARIIEQDAVVPSEWLSSVYKQQWFAMLRAEQDSEVGPQEINKEELEGNSMRCGRKLAKDGEYCWRWTGFNFGFDLLVTYTNRYIIFKRNTLNQPCSGSVSLQPRRSIAFRLRLASFDSSGKLICSRTTGYQILTLEKDQEQVVMNLDSRLLIFPLYICCNFLYISPEKKN

Variants of: B1
Conditions: with gopc_human GOPC

| Variant | effect of a mutation on the interaction |
| --- | --- |
| C294R | with no effect |
| P627A | with no effect |
| Y320S | with no effect |
| E346K | with no effect |

Variants of: B1
Conditions: with cep70_human CEP70, Q8NHQ1
Chain of cep70_human CEP70, Q8NHQ1 (Q8NHQ1 whole entry): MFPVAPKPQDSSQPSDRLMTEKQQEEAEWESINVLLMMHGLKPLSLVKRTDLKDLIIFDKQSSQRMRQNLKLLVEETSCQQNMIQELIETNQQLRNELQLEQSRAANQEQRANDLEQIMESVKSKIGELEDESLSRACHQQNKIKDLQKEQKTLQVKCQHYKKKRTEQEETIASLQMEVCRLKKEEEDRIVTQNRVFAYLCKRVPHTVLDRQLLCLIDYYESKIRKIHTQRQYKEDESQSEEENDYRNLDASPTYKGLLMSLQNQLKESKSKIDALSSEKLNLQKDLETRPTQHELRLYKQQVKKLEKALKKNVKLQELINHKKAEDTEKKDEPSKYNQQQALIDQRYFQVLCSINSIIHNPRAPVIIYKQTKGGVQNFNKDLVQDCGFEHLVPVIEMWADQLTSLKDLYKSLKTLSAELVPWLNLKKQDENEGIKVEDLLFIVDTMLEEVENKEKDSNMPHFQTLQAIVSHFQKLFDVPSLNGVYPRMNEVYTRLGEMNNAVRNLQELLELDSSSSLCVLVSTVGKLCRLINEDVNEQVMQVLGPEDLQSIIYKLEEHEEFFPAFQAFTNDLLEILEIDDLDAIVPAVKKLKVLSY

| Variant | effect of a mutation on the interaction |
| --- | --- |
| C294R | with no effect |
| P627A | with no effect |
| Y320S | disrupting interaction strength |
| E346K | with no effect |

Variants of: B2
Conditions: with nfya_human NFYA

| Variant | effect of a mutation on the interaction |
| --- | --- |
| K368Q | with no effect |

Variants of: B2
Conditions: with srsf6_human SRSF6, Q13247
Chain of srsf6_human SRSF6, Q13247 (Q13247 whole entry, looked up): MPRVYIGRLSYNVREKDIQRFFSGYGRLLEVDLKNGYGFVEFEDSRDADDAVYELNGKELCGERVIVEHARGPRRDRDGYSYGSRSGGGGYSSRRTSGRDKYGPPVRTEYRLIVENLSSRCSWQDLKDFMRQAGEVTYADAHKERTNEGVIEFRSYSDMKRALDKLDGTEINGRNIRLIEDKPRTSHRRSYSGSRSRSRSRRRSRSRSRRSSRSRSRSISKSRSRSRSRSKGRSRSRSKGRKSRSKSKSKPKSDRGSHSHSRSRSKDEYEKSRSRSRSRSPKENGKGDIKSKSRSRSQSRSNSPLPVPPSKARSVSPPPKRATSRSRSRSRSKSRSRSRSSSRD

| Variant | effect of a mutation on the interaction |
| --- | --- |
| K368Q | with no effect |

Variants of: B3
Conditions: with amol2_human AMOTL2, Q9Y2J4
Chain of amol2_human AMOTL2, Q9Y2J4 (Q9Y2J4 whole entry): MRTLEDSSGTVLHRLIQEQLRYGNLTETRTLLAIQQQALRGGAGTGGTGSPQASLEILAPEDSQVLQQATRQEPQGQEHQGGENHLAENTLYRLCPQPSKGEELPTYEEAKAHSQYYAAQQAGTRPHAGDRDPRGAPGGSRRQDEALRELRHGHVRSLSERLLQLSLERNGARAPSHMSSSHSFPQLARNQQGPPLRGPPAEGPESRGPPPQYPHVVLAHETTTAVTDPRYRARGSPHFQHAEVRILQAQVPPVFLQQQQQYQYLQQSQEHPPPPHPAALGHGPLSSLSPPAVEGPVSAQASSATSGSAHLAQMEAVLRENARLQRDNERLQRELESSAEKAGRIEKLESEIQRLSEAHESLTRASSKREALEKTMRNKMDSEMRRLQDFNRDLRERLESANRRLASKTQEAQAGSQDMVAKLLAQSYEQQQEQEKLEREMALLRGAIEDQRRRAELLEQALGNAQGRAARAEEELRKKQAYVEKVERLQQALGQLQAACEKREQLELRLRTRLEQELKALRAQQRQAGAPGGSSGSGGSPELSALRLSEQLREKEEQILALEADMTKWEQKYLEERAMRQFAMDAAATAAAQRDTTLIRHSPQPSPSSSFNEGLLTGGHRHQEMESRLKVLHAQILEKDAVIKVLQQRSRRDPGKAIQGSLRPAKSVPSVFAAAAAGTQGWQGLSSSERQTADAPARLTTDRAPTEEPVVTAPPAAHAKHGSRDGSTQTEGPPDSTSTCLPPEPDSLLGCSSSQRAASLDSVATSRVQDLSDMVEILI

| Variant | effect of a mutation on the interaction |
| --- | --- |
| L179P | with no effect |

Variants of: B4
Conditions: with rb39b_human RAB39B

| Variant | effect of a mutation on the interaction |
| --- | --- |
| C159F | with no effect |

Variants of: B5
Conditions: with cul3_human CUL3, Q13618

| Variant | effect of a mutation on the interaction |
| --- | --- |
| I147V | with no effect |
| R449Q | with no effect |
| K281Q | with no effect |
| K123R | with no effect |
| E77K | with no effect |
| I340V | with no effect |

Variants of: B5
Conditions: with FAM167A

| Variant | effect of a mutation on the interaction |
| --- | --- |
| I147V | with no effect |
| R449Q | with no effect |
| K281Q | disrupting interaction strength |
| K123R | with no effect |
| E77K | with no effect |
| I340V | with no effect |
